Measured values reported in US12570750B2, “Antibodies that bind adenosine A2A receptors and methods of use thereof to treat cancer and neurological diseases” (Twist Bioscience Corporation, priority 2019, dated 2026).

Molecular target: adenosine A2A receptor (Homo sapiens, UniProt P29274)
Test: LANCE allosteric cAMP assay: titrated IgG, then fixed NECA concentration
Assay type: cell-based
Settings: Table 12
Procedure: A2A-1 and A2A-9 were assayed for allosteric modulation.
A2A-9 was assayed as described in Example 16.

adenosine A2A receptor, sequence (P29274 whole entry): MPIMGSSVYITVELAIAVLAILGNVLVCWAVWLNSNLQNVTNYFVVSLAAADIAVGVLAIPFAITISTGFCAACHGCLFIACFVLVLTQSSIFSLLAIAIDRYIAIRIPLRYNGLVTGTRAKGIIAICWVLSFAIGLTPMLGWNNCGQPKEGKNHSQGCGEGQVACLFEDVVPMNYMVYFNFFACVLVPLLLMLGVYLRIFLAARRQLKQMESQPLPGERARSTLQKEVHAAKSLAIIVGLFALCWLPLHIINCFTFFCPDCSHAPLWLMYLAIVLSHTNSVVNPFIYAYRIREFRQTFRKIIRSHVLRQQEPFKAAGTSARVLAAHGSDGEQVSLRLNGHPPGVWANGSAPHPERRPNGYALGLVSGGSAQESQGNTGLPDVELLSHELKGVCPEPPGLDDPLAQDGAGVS

B1: A2A-9: A2AR variant immunoglobulin, CDRH1-3 SEQ ID NOs 14/103/192 (antibody, V domains shown)
VH: EVQLQQSGPGLVKPSQSLSLTCSVTGYSITSGYYWNWIRQFPGKKLEWMGYIRYDGSNNYNPSLKNRISITRDTSKNQFFLKLNSVTTDDTATYYCARVHHYYGSSYFDYWGQGTTLTVSS
VL: DIVMTQSQKFMSTSVGDRVSATCKASQNVGSSVAWFQQKPGQSPKALIYSTSYRYSGVPDRFTGSGSGTDFTLTISNVQSEDLAEYFCQQYNSYPLTFGAGTKLEIK
In the case of B1, the “Functional classification, Example 18” value is reported as “antagonist”.
